Biological target: human claudin-1 (human) (UniProt O95832)
Assay: confocal fluorescence on SW620 cells with control siRNA versus CLDN1 siRNA; non-significant

Sequence of human claudin-1 (human) (O95832 whole entry): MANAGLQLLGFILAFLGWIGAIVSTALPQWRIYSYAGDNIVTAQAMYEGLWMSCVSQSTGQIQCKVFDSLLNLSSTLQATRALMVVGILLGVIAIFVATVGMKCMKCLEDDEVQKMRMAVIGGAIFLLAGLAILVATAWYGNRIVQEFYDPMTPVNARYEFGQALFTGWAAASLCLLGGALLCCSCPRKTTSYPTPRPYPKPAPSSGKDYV

fold-change of signal, siCL versus siCLDN1 cells: 0.8 fold
Substance: SPT*-Cy5.5 (control scrambled peptide SPTPSSR labeled with Cy5.5 via the GGGSK linker)
